Experimental data as given in PMC11044105, “Overcoming Lot-to-Lot Variability in Protein Activity Using Epitope-Specific Calibration-Free Concentration Analysis” (Analytical Chemistry, 2024).

Target: T1, ProteinA (UniProt P38507)
T1 construct: the form on the sensor is not described; Sensor-chip Protein A is probably a recombinant form; also called ProteinA sensor chip; ProteinA-CM5; source: on SPR sensor chips (ProteinA chip or ProteinA-conjugated CM5 chip)
Test: SPR; calibration-free concentration analysis (CFCA) on Biacore T200, 1x PBST; NISTmAb 8671 as analyte over ProteinA/ProteinG sensors to assign form factors
Settings: both partners purified

B1: NISTmAb 8671 (antibody, V domains shown)
VH: QVTLRESGPALVKPTQTLTLTCTFSGFSLSTAGMSVGWIRQPPGKALEWLADIWWDDKKHYNPSLKDRLTISKDTSKNQVVLKVTNMDPADTATYYCARDMIFNFYFDVWGQGTTVTVSS
VL: DIQMTQSPSTLSASVGDRVTITCSASSRVGYMHWYQQKPGKAPKLLIYDTSKLASGVPSRFSGSGSGTEFTLTISSLQPDDFATYYCFQGSGYPFTFGGGTKVEIK
Does B1 bind?
Result: binds
